{"source": "paper PMC8300647", "about": "“Effects of Serine or Threonine in the Active Site of Typical 2-Cys Prx on Hyperoxidation Susceptibility and on Chaperone Activity” (Antioxidants, 2021)", "key": {"[1]": {"molecular_target": "the molecule itself", "assay": "SEC; reduced samples: 30 uM protein treated with 5 mM TCEP, excess removed by PD10; Phenomenex BioSep-SEC-S2000, 100 mM Tris-HCl pH 7.4, 1 mL/min, absorbance at 280 nm; self-association (decamer, dimer)"}, "[2]": {"molecular_target": "the molecule itself", "assay": "SEC; oxidized samples (disulfide): reduced 30 uM protein treated with 36 uM H2O2 for 30 min at room temperature; Phenomenex BioSep-SEC-S2000, 100 mM Tris-HCl pH 7.4, 1 mL/min, absorbance at 280 nm; self-association (decamer, dimer)"}}, "data": [{"protein": "AhpC from Pseudomonas aeruginosa (enzyme, UniProt Q9I6Z3 1-187, looked up, The forward primer carries the ATG of the Nde I site followed by the gene's own ATG, so one more Met may precede the natural start; The strain that was amplified (ATCC29853) is not the strain of the genome used for the primers; also called PaAhpC; ahpc (Pa); source: E. coli BL21 (DE3), pET15b, purified (IMAC HisTrap, PD10 desalting)) MSLINTQVQPFKVNAFHNGKFIEVTEESLKGKWSVLIFMPAAFTFNCPTEIEDAANNYGEFQKAGAEVYIVTTDTHFSHKVWHETSPAVGKAQFPLIGDPTHQLTNAFGVHIPEEGLALRGTFVINPEGVIKTVEIHSNEIARDVGETVRKLKAAQYTAAHPGEVCPAKWKEGEKTLAPSLDLVGKI", "values": [{"measurement": "stoichiometry N", "setting": "[1]", "result": 10}, {"measurement": "stoichiometry N", "setting": "[2]", "result": 2}]}, {"protein": "PaAhpC^T44S (enzyme, AhpC of Pseudomonas aeruginosa with the catalytic triad Thr changed to Ser; printed as T44S in the SEC text and legend and as T43S in the primers' names and other legends (one mutant; mutagenic primer encodes AAFSFNC); Made by site directed mutagenesis (Quick Change II) of the pET15b-ahpc (Pa) plasmid; also called PaAhpC^T43S; source: E. coli BL21 (DE3), pET15b, purified (IMAC HisTrap, …)) MSLINTQVQPFKVNAFHNGKFIEVTEESLKGKWSVLIFMPAAFSFNCPTEIEDAANNYGEFQKAGAEVYIVTTDTHFSHKVWHETSPAVGKAQFPLIGDPTHQLTNAFGVHIPEEGLALRGTFVINPEGVIKTVEIHSNEIARDVGETVRKLKAAQYTAAHPGEVCPAKWKEGEKTLAPSLDLVGKI", "values": [{"measurement": "stoichiometry N", "setting": "[1]", "result": 10}]}]}
